Target: human asialo-haptoglobin, phenotype 1-1 (Hp heterotetramer of two α1 and two β-subunits) (human) (UniProt P00738)
Assay: native MS

human hemoglobin holo-heterodimer (αHb and βHb) (from UniProt P69905 1-142; P68871 1-147) (complex)
stoichiometry N (Hb heterodimers per Hp heterotetramer): 2

— publication PMC6126716
